In US20240254182A1:

Biological target: design 9 G-CSFR(Ig-CRH)E, tag cleaved (human) (UniProt Q99062)
Assay: SPR, WT G-CSF against design 9 G-CSFR(Ig-CRH)E; steady state derived affinity constant

## WT G-CSF, purified from insect cells, tag cleaved (from UniProt P09919 31-206) (ligand)
  KD fold change (against WT:WT): 8810 fold
